Article PMC8139589, “A flexible multiplexed immunosensor for point-of-care in situ wound monitoring”

Legend:
TNF-alpha = TNF-alpha (human, UniProt P01375 77-233); test: electrochemical aptasensor (SWV); serum; 0-2 ng/ml; Serum as wound-exudate mimic; about 30 min incubation to equilibrium; aptamers immobilized at 10 uM in TE buffer, MCH passivation; assay pH and temperature not; conditions: protein: commercial; chain copies: 3; label: 5' methylene blue; 3' C3 thiol; hairpin
IL-8 = IL-8 (human, UniProt P10145 28-99); test: electrochemical aptasensor (SWV); serum; 0-30 ng/ml; Serum as wound-exudate mimic; about 30 min incubation to equilibrium; aptamers immobilized at 10 uM in TE buffer, MCH passivation; assay pH and temperature not; conditions: protein: commercial; label: 5' C6 thiol; 3' methylene blue; hairpin
IL-6 = IL-6 (human, UniProt P05231 30-212); test: as above; conditions: protein: commercial; label: 5' C6 thiol; 3' methylene blue; hairpin
IL-6, sequence (P05231 30-212): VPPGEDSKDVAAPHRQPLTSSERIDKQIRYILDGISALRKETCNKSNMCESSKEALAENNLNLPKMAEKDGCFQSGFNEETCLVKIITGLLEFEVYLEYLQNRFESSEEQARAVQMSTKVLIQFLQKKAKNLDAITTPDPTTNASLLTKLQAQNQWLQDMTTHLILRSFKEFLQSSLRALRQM

IL-8, sequence (P10145 28-99): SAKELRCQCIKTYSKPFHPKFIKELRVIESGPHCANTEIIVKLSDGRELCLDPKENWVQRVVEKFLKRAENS
TNF-alpha, sequence (P01375 77-233): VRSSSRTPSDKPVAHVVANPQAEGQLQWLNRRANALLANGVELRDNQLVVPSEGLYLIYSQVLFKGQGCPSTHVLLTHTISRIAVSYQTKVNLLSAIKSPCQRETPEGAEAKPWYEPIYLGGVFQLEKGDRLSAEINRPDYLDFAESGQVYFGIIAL

B1: TNF-alpha aptamer (structured_RNA)
RNA: GGAGUAUCUGAUGACAAUUCGGAGCUCC
modifications: phosphorothioate at all linkages
B1: binds (TNF-alpha).

B2: IL-8 aptamer (structured_RNA)
RNA: GGGGGCUUAUCAUUCCAUUUAGUGUUAUGAUAACC
modifications: none printed (ribo)
B2: binds (IL-8).

B3: IL-6 aptamer (structured_DNA)
DNA: GGTGGCAGGAGGACTATTTATTTGCTTTTCT
B3: binds (IL-6).
